Results: paper PMC6013482, “Conformational switching of the pseudokinase domain promotes human MLKL tetramerization and cell death by necroptosis” (Nature Communications, 2018)

Target: E351K human MLKL (residues 2–471), recombinant (human) (UniProt Q8NB16)

liposome dye release (5(6)-carboxyfluorescein), 1 μM protein, with ATP (% maximum dye release): 40
liposome dye release (5(6)-carboxyfluorescein), 1 μM protein, without ATP: 15 % of maximum
Substance: E351K human MLKL (residues 2–471), recombinant (from UniProt Q8NB16 2-471) (natural protein)
